Assay results: US10487318

Assays:
[1] = target: T1, 33mer peptide (LQLQPFPQPQLPYPQPQLPYPQPQLPYPQPQPF)
T1 chain: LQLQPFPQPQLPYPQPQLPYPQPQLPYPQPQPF

[2] = target: T2, Glia_56-79 peptide (LQLQPFPQPQLPYPQPQLPY)
T2 chain: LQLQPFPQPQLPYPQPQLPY

[3] = target: T3, fluorescent analogue of gliadin, hexapeptide QPQLPY conjugated to a fluorophore and a quencher
T3 chain: QPQLPY

[4] = target: T4, α2-gliadin peptide (PQPQLPYSQPQPFR)
T4 chain: PQPQLPYSQPQPFR

[5] = target: T5, α9-gliadin peptide (QLQPFPQPQLPY)
T5 chain: QLQPFPQPQLPY

[6] = target: T6, γ-gliadin peptide (IQPQQPAQL)
T6 chain: IQPQQPAQL

Protein	Degradation pattern of 33mer (60 min) [1]	activity on peptide (percent) [1]	grade and % of peptide after an 80-min incubation [2]	rate of degradation of the fluorescent hexapeptide, pH 4.0, 37° C. [3]	grade and % of peptide after an 80-min incubation [4]	grade and % of peptide after an 80-min incubation [5]	grade and % of peptide after an 80-min incubation [6]	rate of degradation of the fluorescent hexapeptide, pH 4 [3]
Homologue 4 (NCBI ZP_10028298) (protein) MANHPLNGSERECLKDAQPIGKADPNERLEVTMLVRRRSHDAFEKHISALAAQGASAKHIDHDEFTKHFGADSADLAAVHAFAQKHGLSVVESHEARRAVVLSGTVAQFDAAFGVSLQQYEHDGGTYRGRTGPIHLPDELNGVVDAVMGLDNRPQARPSFRTRAQGNVRWTARAAGASTFTPVQLASLYDFPQGDGQNQCIGIIELGGGYRPADLKTYFASLNMKAPSVTAVSVDHGRNHPTGDPNGPDGEVMLDIEVAGAVAPGAKIVVYFAPNTDAGFIDAIGTAIHDTKNKPSVISISWGGPESAWTQQAMNAFDQAFQSAAALGVTICAASGDNGSGDGVGDGADHVDFPASSPYALGCGGTSLQASGNGIASETVWNDGANGGATGGGVSSFFALPAWQEGLRVTRAGGAHSPLAMRGVPDVAGNADPVTGYEVRVDGHDMVIGGTSAVAPLWAGLIARINAIKGAPVGYINPHLYKDPLALVDITKGNNDDFHATAGWDACTGLGRPDGKKVKDAVS	WT-like	38%	++; 0.6%	had activity comparable to or better than Kumamolisin under these conditions	++ (undetect)	++/-; 25%;	+; 12%	
Homologue 17 (NCBI YP_004216463) (protein) MAATPRFASQPRVTLPGSQKHPLTTDTEVPPPAPVKAAATKLSATPFTVTVIVKRKNPLNLKQVLKPAGRLTHAAFAKAHGPSPDGVKLVKAFAKEFGLTVAPAPGQGRRALYLTGTAAAMQTAFGVTFATKIMEGTKYRVREGDICLPKELIGHVDAVLGLDNRPQAKPHFRHHKPAATSVSYTPVQVGQLYGFPSGAKATGQTIGLIELGGGFRAADITAYFKTLGQTAPKVTAVLVDKAKNTPTTSSSADGEVMLDIEVAAAVAPGANIAVYFAPNTDQGFIDAISQAVHDTVNKPSVISISWGGPESTWTAQSLAALDAACQSAAALGITITVAAGDDGSTDGVKGTVNHVDFPASSPHVLGCGGTKLLGSGTTITSEVVWNELTANEGATGGGVSNVFPLPTWQAKSNVPKPTVAAGGRGVPDVSGNADPSTGYTVRVDGSTFPIGGTSAVAPLWAGLIALCNAQNKTTAGFINPALYAAAAAKSFRDITSGNNGGFKAGPGWDACTGLGSPIGTAIAKTLAPATKSTSKTAVKNAPEIRFRPHKKAPTKTAAKTPALRRLK	WT-like - minor							
Homologue 19 (NCBI YP_005056054) (protein) MPTSSRFASQSRVPLPGSERKPFVPAGAPKAAKTPKVSTAVKTVPATGRIRVSLIVPPKQPLDTKRLGKLDARLSRAQFAARHGADPASVRLVKAFAKEFGLTVEPITQPGRCTVQLSGTCAAMRKAFAISLVEHTTEQGKFRLREGEISLPAELEGHVLAVLGLDNRPQAKPHFRIAKPRATNVSYTPVQVAQMYGFPAGATATGQTIGIIELGGGYRAADLTAYFKTLGLPAPTVTAVPIDGGKNTPGNANGADGEVMLDIEVCAAVAQGAKIAVYFTTNTDQGFIDAITTAVHDSTNKPSVISISWGGPESSWTEQSMTALDAACQAAAAVGVTITVAAGDNGSSDGASGDNVDFPASSPHVLACGGTKLVGSGSTITSEVVWDETSNDEGATGGGVSTVFALPTWQKNANVPSPTTSAGGRGVPDVSGDADPSTGYTIRVDSETTVIGGTSAVAPLWAGLIALANAQNKVAAGFVNPALYAAGAKKAFRDITQGNNGSFSAGPGWDACTGLGSPVGNLVIQAVAPKSTTTKKAKKGKTK	WT-like - minor							
Homologue 1 (NCBI YP_005536585) (protein) MAPSDVEIVDPVAPEERITVTVLLRRRSSIPDQLIEGPDTLSRAELADRHGADPADVEAVRVAMSGAGLTVVGTDLPSRRVTVAGTAEALMRTFGAELQIVRDASGFQHRARSGELRIPAALDGIVIAVLGLDNRPQAEARFRASQPEAARSFRPDALGRVYRFPANTDGTGQTIAIVELGGGFRQSELDTYFGGLGIPAPQVLAVGVDGGQNLPSGDAGSADGEVLLDIEVAGALAPGARQVVYFAPNTDRGFVDAVTTAVHADPTPAAVSISWGAPEDKWTAQARRAFDAALADAAALGVTVTAAAGDRGSADGEGGGGLHTDFPASSPHLLACGGTKLAVADGGTVASETVWNGGERGGATGGGVSVAFGLPAYQRNAGVDKRRKTGKPGRGVPDVAAVADPATGYEVLVDGEQLVFGGTSAVAPLWAALVARLTQALGRPLGLLNTALYDGAQPGRTQPGFRDVTEGDNDISGKHGPYPARAGWDACTGLGVPDGEALLAALRKPGKE		46%	++; 1.6%	had activity comparable to or better than Kumamolisin under these conditions	++ (undetect)	-; 80%	++/-; 29%	
Homologue 6 (NCBI YP_003109679) (protein) MAPEERRTLPGSAMPRPAGAQVLGQIPDDERVEVTVVLQPRAPLPEPGPTPMSRAELADLRSPPEGALEAIARYVAGQGLEVIAADAPRRRIVLAGSAARIAALFGISFVRLQLEGRRYRTYEGEISLPAELAPLVVAVLGLDTRPFARSHRRPAVAPNAPTTAPTVARAYDFPTAYDGRGTTIGFIELGGGFQESDLVRYCEGLGLSTPQVSVVGVDGARNAPTGDPNGPDAEVMLDLEVATGVANGADLVLYMAANTDAAFYSAIATALRDATHAPVAISISWGAPEESYPATTIAAFESVLEEAVHVGVTVLVAAGDQGSTDGVDDGRAHVDYPAASPYVLACGGTRLDLDGTTIVAETVWNDLPNGGATGGGISALFPVPSWQAGIAMPPSANPGAGPGRGVPDVAGNADPDTGYRIVVDGVATVVGGTSAVAPLWAGLVARCHQAGARGGFWNPLLYAARGSSAFHEITVGSNGAYDAGPIWNACCGLGSPNGTAILQTLRA			-; 85%		-; 87%	-; 114%	-; 102%	no activity was seen for this homologue in the fluorescent experiment conducted at pH 4
Homologue 5 (NCBI ZP_09078202) (protein) AGRTSYTPLEVAALYNFPSIHCKDQCIGILELGGGYRPADLQTYFNGLGIPQPNITDVSVGGAANRPTGDPNGPDGEVVLDIEVAAAVTPGAKIAVYFADNSDDGFLNAITTAIHDTRNKPSVISISWGKAEIGWTPQAINAMNQAFRDAAALGVTICCASGDDGSTDRVQDGRYHVDFPASSPYVLACGGTRLESSGSTITQEVVWNEGALGGGATGGGVSDVFDRPNWQANANVPTSANPERRIGRGVPDWAGNADPATGYQILVDGTRAVIGGTSAVAPLFAGLIAIINQKLGHSVGFINPILYNLSAQHNVFHDITSGNNDMSGQNGPYEAQPGWDACTGLGSPDGTKLMNAISEAHRLVSVG			++; 0.4%		++ (undetect)	++/-; 34%;	++/-; 40%	
